Article doi:10.1101/2020.04.28.065904

Molecular target: aa defensin C (mature Aedes albopictus defensin C peptide) (Aedes albopictus)
Test: ELISA

Substance	absorbance
JEV E protein (recombinant) (natural protein)	0.95
JEV ED III protein (ED III domain of the E protein, recombinant) (domain or fragment)	1.17
